Measured values as given in patent US20040161756A1, “Substrate linked directed evolution (slide)” (priority 2000, published 2004).

What was measured:
loxH sites = assay: Recombination of loxH sites in E. coli (initial experiments and pEVO-6 vector, plasmid gel); format: cell-based
From the text: (§1) Evolution vectors: The pEVO vector series is based on the plasmid pBAD-33 (Guzman et al., J Bacteriol 177, 4121-30 (1995)). pEVO-loxP^2, pEVO-3, pEVO-6 and pEVO-10 are identical except for the recognition target sites for the recombinase (see also FIG. 3). pEVO-loxP^2 contains two tandemly repeated loxP sites as they exist in the bacteriophage P1, spaced by 690 bp. pEVO-3, contains two recognition target sites which differ in 3 nucleotides per halfsite from a loxP site. The spacer in pEVO-3 is identical to the one found in loxP sites from bacteriophage P1. pEVO-6 recognition target sites (loxH) have the spacer sequence altered in all eight positions in addition to the three nucleotides changes present in pEVO-3. pEVO-10 contains two loxH sites as well as two loxP sites, which are intertwined. Recombinase expression levels can be titrated by the amount of L-arabinose added to the medium.

loxP sites = assay: Recombination of pEVO-loxP^2 excision substrate in E. coli; format: cell-based; conditions: expressed from the arabinose promoter, even at very low expression levels
From the text: as §1
(§2) To test the method of the invention, Cre recombinase was first cloned into the vector pEVO-loxP^2, which contains two loxP sites, oriented as an excision substrate. […] As a first step, the three nucleotides different in the loxH halfsites were introduced (pEVO-3). […] Libraries of mutated recombinase were cloned into pEVO3 and screened at low recombinase expression levels.

[1] = system: recognition target sites which differ in 3 nucleotides per halfsite from a loxP site; assay: Recombination of pEVO-3 in E. coli; format: cell-based
From the text: as §1, §2

pSVpaX (loxP sites) = assay: Recombination reporter assay in CHO cells, pSVpaX; format: cell-based, chinese hamster; conditions: co-transfection, within 36 hours, from β-galactosidase activities
From the text: (§3) a) Plasmids expressing the depicted recombinases from the PGK promoter were co-transfected with the recombination reporter plasmids pSVpaX (loxP sites) or pSVpaH (loxH sites) into CHO cells. Illustrations of plasmids pSVpaX, pSVpaH, and pSVpaZ is presented. White triangles depict loxH sites, grey triangles loxP sites, and black triangles FRT sites. SV40═SV40 early promoter; pac=puromycin acetytransferase.
(§4) Cell culture: Chinese hamster ovary (CHO) cells were transfected with plasmid DNA using Lipofectamine (GibcoBRL). Crude cell extracts were prepared after 36 hours and Luciferase activity of cell extracts were determined with the Luciferase assay system from Promega. Relative β-galactosidase activities were measured with the Galacto-Light kit from Tropix. The Cre recombination reporter plasmid pSVpaX has been described earlier (Buchholz et al., Nucleic Acids Res 24, 4256-62 (1996)). pSVpaH is identical to pSVpaX except that the loxP sites were exchanged with loxH sites. […] Recombination efficiencies were calculated from measured β-galactosidase activities, corrected by transformation efficiencies assayed by Luciferase measurements.
(§5) The recombination properties of Fre1 and Fre3 were evaluated in mammalian cells, by co-transfecting chinese hamster ovary (CHO) cells with reporter and recombinase expression plasmids (FIG. 6a). […]

pSVpaH (loxH sites) = assay: Recombination reporter assay in CHO cells, pSVpaH; format: cell-based, chinese hamster; conditions: co-transfection
From the text: as §3, §4, §5

B1: Cre: site specific recombinase that recognises the 34 bp loxP sequence; wild type starting protein (protein, UniProt P06956 1-343, looked up)
Recombinase cre: MSNLLTVHQNLPALPVDATSDEVRKNLMDMFRDRQAFSEHTWKMLLSVCRSWAAWCKLNNRKWFPAEPEDVRDYLLYLQARGLAVKTIQQHLGQLNMLHRRSGLPRPSDSNAVSLVMRRIRKENVDAGERAKQALAFERTDFDQVRSLMENSDRCQDIRNLAFLGIAYNTLLRIAEIARIRVKDISRTDGGRMLIHIGRTKTLVSTAGVEKALSLGVTKLVERWISVSGVADDPNNYLFCRVRKNGVAAPSATSQLSTRALEGIFEATHRLIYGAKDDSGQRYLAWSGHSARVGAARDMARAGVSIPEIMQAGGWTNVNIVMNYIRNLDSETGAMVRLLEDGD
- recombination of pEVO-6 (loxH sites) (loxH sites; even when induced with arabinose): no recombination
- recombination of loxH sites (loxH sites; initial recombination experiments in E. coli): does not recombine this site at measurable frequency
- recombination of plasmid pEVO-loxP^2 (loxP sites): efficiently recombined
- recombination of pEVO-3 ([1]; higher expression levels): recombination was observed
- recombination of pEVO-3 ([1]; low expression levels): did not recombine
- reporter pSVpaX recombined (pSVpaX (loxP sites)): approximately 75%
- recombination of pSVpaH (pSVpaH (loxH sites)): little recombination
